From patent US20160257744A1 (Genentech, published 2016)
Substitutions are numbered along the chain they refer to.

Experiments:
[1] = molecular target: T1, interleukin 5 (IL5) (human, UniProt P05113 20-134); experiment: phage ELISA: direct binding of the phage clone to antigen-coated wells (NB = no detectable binding)
T1 construct: also called human IL5 (R&D Systems)
T1 sequence (looked up): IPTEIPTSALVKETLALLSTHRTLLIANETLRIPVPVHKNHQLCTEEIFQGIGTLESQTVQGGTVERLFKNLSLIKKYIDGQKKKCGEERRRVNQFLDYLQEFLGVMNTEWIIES

[2] = molecular target: T2, interleukin 4 (IL4) (UniProt P05112 25-153); experiment: phage competition ELISA: Fab-phage incubated 2 h with serial dilutions of the antigen in solution, unbound phage captured on antigen-coated wells, anti-M13-HRP; IC50 = antigen concentration inhibiting 50% of phage binding
T2 sequence (looked up): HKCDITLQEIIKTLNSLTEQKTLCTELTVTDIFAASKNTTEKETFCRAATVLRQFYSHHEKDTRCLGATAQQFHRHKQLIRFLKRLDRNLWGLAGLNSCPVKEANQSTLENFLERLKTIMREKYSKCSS
Method: (§1) Fab displaying phage was first incubated with serial dilutions of the respective antigens in solution for 2 h, unbound phage was then briefly captured by antigen coated ELISA wells and detected with anti-M13 HRP conjugate. The concentration of antigen inhibiting 50% of phage binding to antigen coated well is calculated as IC₅₀. NB denotes no detectable binding of phage clone directly to the antigens coated wells.

[3] = molecular target: T3, interleukin 13 (IL13) (UniProt P35225 35-146, limits assumed); experiment: as above
Method: as §1

[4] = molecular target: T1, interleukin 5 (IL5); experiment: phage competition ELISA (phage IC50), soluble IL5 against IL5-coated wells
Method: as §1
(§2) The relative affinity of each clone was assessed by phage IC₅₀ as above.

[5] = molecular target: T3, interleukin 13 (IL13); experiment: phage ELISA: direct binding of the phage clone to antigen-coated wells (NB = no detectable binding)
[6] = molecular target: T1, interleukin 5 (IL5); experiment: phage competition ELISA: Fab-phage incubated 2 h with serial dilutions of the antigen in solution, unbound phage captured on antigen-coated wells, anti-M13-HRP; IC50 = antigen concentration inhibiting 50% of phage binding
Method: as §1

[7] = molecular target: T4, HER2 ECD; experiment: ELISA: human IgG1 at 250 nM on protein-coated wells, anti-Fc-HRP
T4 construct: one of the irrelevant proteins; also called irrelevant protein coated on ELISA wells

[8] = molecular target: T5, BSA (bovine, UniProt P02769); experiment: as above
T5 construct: negative control protein; also called irrelevant protein coated on ELISA wells

[9] = molecular target: T3, interleukin 13 (IL13); experiment: as above
[10] = molecular target: T1, interleukin 5 (IL5); experiment: SPR, Fab over immobilized IL5
[11] = molecular target: T2, interleukin 4 (IL4); experiment: SPR (Biacore), Fab over CM5 chip with immobilized IL4, 25 °C
[12] = molecular target: T1, interleukin 5 (IL5); experiment: SPR (Biacore), Fab over CM5 chip with immobilized human IL5, 25 °C
[13] = molecular target: T2, interleukin 4 (IL4); experiment: phage competition ELISA (phage IC50), soluble IL4 against IL4-coated wells
Method: as §1, §2

T3 sequence (P35225 35-146 limits assumed): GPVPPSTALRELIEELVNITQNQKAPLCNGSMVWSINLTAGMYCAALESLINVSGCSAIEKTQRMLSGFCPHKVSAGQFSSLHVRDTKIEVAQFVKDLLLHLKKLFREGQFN
T5 sequence (P02769 25-607 limits assumed): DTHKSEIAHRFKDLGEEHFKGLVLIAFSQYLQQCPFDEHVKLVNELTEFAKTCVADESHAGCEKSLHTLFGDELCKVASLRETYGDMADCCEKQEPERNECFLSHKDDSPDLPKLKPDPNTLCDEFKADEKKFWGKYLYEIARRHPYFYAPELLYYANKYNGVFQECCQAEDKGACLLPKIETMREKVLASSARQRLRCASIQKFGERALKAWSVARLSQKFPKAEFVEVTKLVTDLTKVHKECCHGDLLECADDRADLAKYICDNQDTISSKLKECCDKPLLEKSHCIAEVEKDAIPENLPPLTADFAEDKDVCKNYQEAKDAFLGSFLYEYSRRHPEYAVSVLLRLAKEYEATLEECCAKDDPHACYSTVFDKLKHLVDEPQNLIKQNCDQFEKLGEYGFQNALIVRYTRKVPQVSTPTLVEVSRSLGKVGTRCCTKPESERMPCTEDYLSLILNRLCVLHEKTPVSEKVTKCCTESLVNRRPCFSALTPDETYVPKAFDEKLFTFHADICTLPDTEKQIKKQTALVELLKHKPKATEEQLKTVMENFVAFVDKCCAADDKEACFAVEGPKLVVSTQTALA

B1: F2, anti-IL4/IL13 dual specific variant of hu19C11, Fab displayed on phage (Fab, V domains shown)
VH: EVQLVQSGAEVKKPGASVKVSCKASGYTFTDYSMHWVRQAPGQGLEWIGIIFYTGHTYYADDFKGRVTITRDTSTSTAYLELSSLRSEDTAVYYCARGGIFYGMDYWGQGTLVTVSS
VL: DIQMTQSPSSLSASVGDRVTITCKASQSVINDAAWYQQKPGKAPKLLIYYTSHRYTGVPSRFSGSGSGTDFTLTISSLQEDFATYYCQQDYTSPWTFGQGTKVEIKR
B1 was tested, and the binding result [1] was “no binding”, the IC50 [2] was 14.8 nM and the IC50 [3] was about 1000 nM.

B2: 1C.11 (Fab, V domains shown)
VH: EVQLVQSGAEVKKPGASVKVSCKASGYTFTDYFIHWVRQAPGQGLEWIGGIVYDATGFTIYAENFKGRVTITRDTSTSTAYLELSSLRSEDTAVYYCARGGIFYGMDYWGQGTLVTVSS
VL: B1 VL with T92I
For B2, the IC50 [4] was about 1000 nM.

B3: 1C.91 (Fab, V domains shown)
VH: B2 VH with I60T, N64D
VL: B1 VL
For B3, the IC50 [4] was about 1000 nM.

B4: 2B.6 (Fab, V domains shown)
VH: B2 VH with G49A, I60T, E63D, N64L, R73I, T75F
VL: B1 VL
Binder B4 has an IC50 [4] of about 1000 nM.

B5: 1C.42 (Fab, V domains shown)
VH: B2 VH with I60T, E63D, N64S
VL: B1 VL with S93H
Binder B5 has an IC50 [4] of 8.5 nM.

B6: 1C.3 (Fab, V domains shown)
VH: B2 VH with I60T, E63V, N64E
VL: B1 VL with S93H
In the case of B6, the IC50 [4] is reported as about 1000 nM.

B7: 2B.28 (Fab, V domains shown)
VH: B2 VH with G49A, I60T, E63D, T75M, A80V
VL: B1 VL
B7 was tested, and the IC50 [4] was 1.1 nM.

B8: 2C.75 (Fab, V domains shown)
VH: B2 VH with G49A, I60T, E63D, N64F, A80V
VL: B1 VL
B8 showed an IC50 [4] of 0.6 nM.

B9: 1C.27 (Fab, V domains shown)
VH: B2 VH with E63D, N64D
VL: B1 VL with S93H
For B9, the IC50 [4] was 18.2 nM.

B10: 1C.93 (Fab, V domains shown)
VH: B2 VH with I60V, E63D, N64D
VL: B1 VL with S93H
With B10 the IC50 [4] was about 1000 nM.

B11: 2B.64 (Fab, V domains shown)
VH: B2 VH with G49A, I60T, E63D, N64S, V69F, A80V
VL: B1 VL
B11 was tested, and the IC50 [4] was about 1000 nM.

B12: 2B.48 (Fab, V domains shown)
VH: B2 VH with G49A, I60T, E63D, N64A, A80V
VL: B1 VL
B12 showed an IC50 [4] of 9.2 nM.

B13: 1C.94 (Fab, V domains shown)
VH: B2 VH with I60A, E63D, N64D
VL: B1 VL
For B13, the IC50 [4] was about 1000 nM.

B14: 2B.35 (Fab, V domains shown)
VH: B2 VH with G49A, I60T, E63D, N64T, T75P, A80V
VL: B1 VL
B14 gave an IC50 [4] of 1.5 nM.

B15: 1C.24 (Fab, V domains shown)
VH: B2 VH with G49A, I60T, E63D, N64S
VL: B1 VL with T92L, S93H
Work on B15 yielded an IC50 [4] of about 1000 nM.

B16: E7, anti-IL4/IL5 dual specific variant of hu19C11, Fab displayed on phage (Fab, V domains shown)
VH: B2 VH with G49A, I60T, E63D, N64D
VL: B1 VL
notes: also called clone E7
In the case of B16, the IC50 [4] is reported as about 1000 nM, the binding result [5] is reported as “no binding” and the IC50 [6] is reported as about 1000 nM.

B17: E7 as human IgG1 (antibody, V domains shown)
VH: B2 VH with G49A, I60T, E63D, N64D
VL: B1 VL
notes: also called IL4/IL5 dual specific antibody E7
B17: no binding (tested: 250 nM) [7]; no binding (tested: 250 nM) [8]; no binding (tested: 250 nM) [9].

B18: 1C36, affinity-matured variant of E7, purified as Fab (Fab, V domains shown)
VH: B2 VH with I60T, N64E
VL: B1 VL with S93H
notes: Purified Fab for SPR
For B18, the Kd [10] was 24.1 nM, the “fold improvement of affinity toward IL5 against E7” value [10] was 37 fold and the Kd [11] was 3.5 nM. It also gave a koff [11] of 0.00197 s⁻¹, a kon [11] of 557000 M⁻¹ s⁻¹ and a koff [12] of 0.000221 s⁻¹. The kon [12] was 9180 M⁻¹ s⁻¹.

B19: F1, anti-IL4/IL13 dual specific variant of hu19C11, Fab displayed on phage (Fab, V domains shown)
VH: B1 VH with I50V, Y53Q, T54S, H56A
VL: B1 VL
With B19 the binding result [1] was “no binding”, the IC50 [2] was 22.3 nM and the IC50 [3] was about 1000 nM.

B20: 1C60, affinity-matured variant of E7, purified as Fab (Fab, V domains shown)
VH: B2 VH with G49A, I60V, E63D, N64D
VL: B1 VL with T92K, S93H
notes: Purified Fab for SPR
For B20, the Kd [10] was 44.4 nM, the “fold improvement of affinity toward IL5 against E7” value [10] was 20 fold and the Kd [11] was 4.9 nM. The koff [11] was 0.00342 s⁻¹, the kon [11] was 697000 M⁻¹ s⁻¹ and the koff [12] was 0.000552 s⁻¹. For the same binder, the kon [12] was 12400 M⁻¹ s⁻¹.

B21: 1C.36 (Fab, V domains shown)
VH: B2 VH with I60T, N64E
VL: B1 VL with S93H
notes: same clone as m16 and m18, here in the phage format
Work on B21 yielded an IC50 [13] of 2.1 nM and an IC50 [4] of 0.9 nM.

B22: 1C.60 (Fab, V domains shown)
VH: B2 VH with G49A, I60V, E63D, N64D
VL: B1 VL with T92K, S93H
notes: same clone as m17 and m19, here in the phage format
B22 showed an IC50 [13] of 1.1 nM and an IC50 [4] of 3.67 nM.

B23: B1, anti-IL4/IL5 dual specific variant of hu19C11, Fab displayed on phage (Fab, V domains shown)
VH: EVQLVQSGAEVKKPGASVKVSCKASGYTFTDYLMHWVRQAPGQGLEWIAVIVSITGRTYYADDFKGRVTITRDTSTSTAYLELSSLRSEDTAVYYCARGGIFYGMDYWGQGTLVTVSS
VL: DIQMTQSPSSLSASVGDRVTITCKASQSVINDAAWYQQKPGKAPKLLIYYTSHRYTGVPSRFSGSGSGTDFTLTISSLQEDFATYYCQQDYTPFPLTFGQGTKVEIKR
notes: also called clone B1
In the case of B23, the binding result [5] is reported as “no binding”, the IC50 [2] is reported as about 1000 nM and the IC50 [6] is reported as about 1000 nM.

B24: B1 as human IgG1 (antibody, V domains shown)
VH: B23 VH
VL: B23 VL
notes: also called IL4/IL5 dual specific antibody B1
B24: no binding (tested: 250 nM) [7]; no binding (tested: 250 nM) [8]; no binding (tested: 250 nM) [9].
